In patent publication US20240209076A1 (KODIAK SCIENCES, published 2024) one finds Kd, koff and kon data, which are given here for 24 molecules.

As usually defined, the Kd is the free concentration of one partner at which half of the binding sites on the other are occupied at equilibrium, for simple one-to-one binding. Low readings indicate tighter binding, high ones weaker binding. The koff is the first-order rate constant of dissociation. Low readings indicate slow dissociation, high ones fast dissociation. Usually kon stands for the second-order rate constant of association. A low value points to slower complex formation.

Substitutions are numbered along the chain they refer to. Names may count otherwise.

B1: anti-IL-6 antibody, heavy chain S35K, G66D / light chain M32L, M50D, N52S, M88Q (antibody, human IgG1, V domains shown)
VH: EVQLVESGGGLVQPGGSLRLSCAASGFTFSPFAMKWVRQAPGKGLEWVAKISPGGSWTYYSDTVTDRFTFSLDTSKSTAYLQMNSLRAEDTAVYYCARQLWGYYALDIWGQGTLVTVSS
VL: DIQLTQSPSSLSASVGDRVTITCSASISVSYLYWYQQKPGKAPKLLIYDDSSLASGVPSRFSGSGSGTDFTLTISSLQPEDFATYYCQQWSGYPYTFGQGTKVEIK
notes: Human IgG1
B2: anti-IL-6 antibody, heavy chain S35W, G66D / light chain M32L, M50D, N52S, M88Q (antibody, human IgG1, V domains shown)
VH: B1 VH with K35W
VL: B1 VL
notes: Human IgG1
B3: anti-IL-6 antibody, heavy chain T65D, G66D / light chain M32L, M50D, N52S, M88Q (antibody, human IgG1, V domains shown)
VH: B1 VH with K35S, T65D
VL: B1 VL
notes: Human IgG1
B4: anti-IL-6 antibody, heavy chain T63V, G66D / light chain M32L, M50D, N52S, M88Q (antibody, human IgG1, V domains shown)
VH: B1 VH with K35S, T63V
VL: B1 VL
notes: Human IgG1
B5: anti-IL-6 antibody, heavy chain T63A, G66D / light chain M32L, M50D, N52S, M88Q (antibody, human IgG1, V domains shown)
VH: B1 VH with K35S, T63A
VL: B1 VL
notes: Human IgG1
B6: anti-IL-6 antibody, heavy chain T65A, G66D / light chain M32L, M50D, N52S, M88Q (antibody, human IgG1, V domains shown)
VH: B1 VH with K35S, T65A
VL: B1 VL
notes: Human IgG1
B7: anti-IL-6 antibody, heavy chain S35Q, G66D / light chain M32L, M50D, N52S, M88Q (antibody, human IgG1, V domains shown)
VH: B1 VH with K35Q
VL: B1 VL
notes: Human IgG1
B8: anti-IL-6 antibody, heavy chain T63F, G66D / light chain M32L, M50D, N52S, M88Q (antibody, human IgG1, V domains shown)
VH: B1 VH with K35S, T63F
VL: B1 VL
notes: Human IgG1
B9: anti-IL-6 antibody, heavy chain T65E, G66D / light chain M32L, M50D, N52S, M88Q (antibody, human IgG1, V domains shown)
VH: B1 VH with K35S, T65E
VL: B1 VL
notes: Human IgG1
B10: anti-IL-6 antibody, heavy chain T63L, G66D / light chain M32L, M50D, N52S, M88Q (antibody, human IgG1, V domains shown)
VH: B1 VH with K35S, T63L
VL: B1 VL
notes: Human IgG1
B11: anti-IL-6 antibody, heavy chain T63G, G66D / light chain M32L, M50D, N52S, M88Q (antibody, human IgG1, V domains shown)
VH: B1 VH with K35S, T63G
VL: B1 VL
notes: Human IgG1
B12: anti-IL-6 antibody, heavy chain S35V, G66D / light chain M32L, M50D, N52S, M88Q (antibody, human IgG1, V domains shown)
VH: B1 VH with K35V
VL: B1 VL
notes: Human IgG1
B13: anti-IL-6 antibody, heavy chain S35P, G66D / light chain M32L, M50D, N52S, M88Q (antibody, human IgG1, V domains shown)
VH: B1 VH with K35P
VL: B1 VL
notes: Human IgG1
B14: anti-IL-6 antibody, heavy chain T63H, G66D / light chain M32L, M50D, N52S, M88Q (antibody, human IgG1, V domains shown)
VH: B1 VH with K35S, T63H
VL: B1 VL
notes: Human IgG1
B15: anti-IL-6 antibody, heavy chain T63W, G66D / light chain M32L, M50D, N52S, M88Q (antibody, human IgG1, V domains shown)
VH: B1 VH with K35S, T63W
VL: B1 VL
notes: Human IgG1
B16: anti-IL-6 antibody, heavy chain S35Y, G66D / light chain M32L, M50D, N52S, M88Q (antibody, human IgG1, V domains shown)
VH: B1 VH with K35Y
VL: B1 VL
notes: Human IgG1
B17: anti-IL-6 antibody, heavy chain T63P, G66D / light chain M32L, M50D, N52S, M88Q (antibody, human IgG1, V domains shown)
VH: B1 VH with K35S, T63P
VL: B1 VL
notes: Human IgG1
B18: anti-IL-6 antibody, heavy chain S35T, G66D / light chain M32L, M50D, N52S, M88Q (antibody, human IgG1, V domains shown)
VH: B1 VH with K35T
VL: B1 VL
notes: Human IgG1
B19: anti-IL-6 antibody, heavy chain T63Y, G66D / light chain M32L, M50D, N52S, M88Q (antibody, human IgG1, V domains shown)
VH: B1 VH with K35S, T63Y
VL: B1 VL
notes: Human IgG1
B20: anti-IL-6 antibody, heavy chain T63D, G66D / light chain M32L, M50D, N52S, M88Q (antibody, human IgG1, V domains shown)
VH: B1 VH with K35S, T63D
VL: B1 VL
notes: Human IgG1
B21: anti-IL-6 antibody, heavy chain S35L, G66D / light chain M32L, M50D, N52S, M88Q (antibody, human IgG1, V domains shown)
VH: B1 VH with K35L
VL: B1 VL
notes: Human IgG1
B22: anti-IL-6 antibody, heavy chain T63S, G66D / light chain M32L, M50D, N52S, M88Q (antibody, human IgG1, V domains shown)
VH: B1 VH with K35S, T63S
VL: B1 VL
notes: Human IgG1
B23: anti-IL-6 antibody, heavy chain T63I, G66D / light chain M32L, M50D, N52S, M88Q (antibody, human IgG1, V domains shown)
VH: B1 VH with K35S, T63I
VL: B1 VL
notes: Human IgG1
B24: anti-IL-6 antibody, heavy chain T63R, G66D / light chain M32L, M50D, N52S, M88Q (antibody, human IgG1, V domains shown)
VH: B1 VH with K35S, T63R
VL: B1 VL
notes: Human IgG1

The target in the assay is human IL-6 (human, UniProt P05231 30-212). The assay can be described thus: SPR (Biacore), supernatant antibody on Protein A chip, IL-6 flowed, 37 C. As to the method: Antibodies were captured on a Protein A chip (GE) by injecting 1:20 cell supernatant dilutions at 10 μL/min for 60 seconds. […] The sensor chip was regenerated by a 60 seconds injection of 10 mM Glycine pH 1.7 at the flow rate of 50 μL/min. […] For this setup, 1 μg/mL of purified antibody was injected over a Protein A chip at 10 μL/min for 25 seconds. […] The sensor chip was regenerated by a 60 seconds injection of 10 mM Glycine pH 1.7 at flow rate of 50 μL/min. Data analysis for supernatant and purified samples were performed using BIAevaluation software (GE). All sensorgrams were double reference subtracted and fit using a 1:1 Langmuir binding model.
human IL-6, sequence (P05231 30-212 limits assumed): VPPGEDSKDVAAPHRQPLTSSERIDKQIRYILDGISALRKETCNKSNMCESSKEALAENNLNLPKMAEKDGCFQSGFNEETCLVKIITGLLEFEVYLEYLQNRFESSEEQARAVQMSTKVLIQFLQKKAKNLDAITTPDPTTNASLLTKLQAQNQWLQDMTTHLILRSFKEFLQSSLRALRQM
A general note: SPR reads the build-up and loss of mass on a sensor chip optically.
For B1, the Kd stood at 2640 pM, the koff was found to be 0.00346 s⁻¹ and the kon came to 1.31e+06 M⁻¹ s⁻¹.

In turn, B2 returned a Kd of 34600 pM, a koff of 0.00591 s⁻¹ and a kon of 171000 M⁻¹ s⁻¹.

In turn, B3 displayed a Kd of 465 pM, a koff of 0.00048 s⁻¹ and a kon of 1.03e+06 M⁻¹ s⁻¹.

Regarding B4, the Kd was 274 pM, the koff came out at 0.00043 s⁻¹ and the kon was 1.57e+06 M⁻¹ s⁻¹.

In turn, B5 had a Kd of 268 pM, a koff of 0.000458 s⁻¹ and a kon of 1.7e+06 M⁻¹ s⁻¹.

B6: binding was characterised by a dissociation constant (Kd) of 239 pM, the koff came out at 0.000542 s⁻¹ and the kon came to 2.27e+06 M⁻¹ s⁻¹.

As to B7, the Kd turned out to be 300 pM, the koff amounted to 0.000626 s⁻¹ and the kon stood at 2.09e+06 M⁻¹ s⁻¹.

Turning to B8, binding was characterised by a dissociation constant (Kd) of 274 pM, the koff is 0.000459 s⁻¹ and the kon amounted to 1.67e+06 M⁻¹ s⁻¹.

B9 gave a Kd of 279 pM, a koff of 0.000474 s⁻¹ and a kon of 1.7e+06 M⁻¹ s⁻¹.

With B10, the Kd was 283 pM, the koff stood at 0.000454 s⁻¹ and the kon was determined as 1.6e+06 M⁻¹ s⁻¹.

B11 showed a Kd of 261 pM, a koff of 0.00045 s⁻¹ and a kon of 1.73e+06 M⁻¹ s⁻¹.

Regarding B12, binding was characterised by a dissociation constant (Kd) of 1330 pM, the koff came out at 0.00137 s⁻¹ and the kon is 1.03e+06 M⁻¹ s⁻¹.

For the molecule B13, the Kd turned out to be 27100 pM, the koff amounted to 0.00548 s⁻¹ and the kon was found to be 202000 M⁻¹ s⁻¹.

As for B14, binding was characterised by a dissociation constant (Kd) of 280 pM, the koff stood at 0.000481 s⁻¹ and the kon turned out to be 1.72e+06 M⁻¹ s⁻¹.

For the molecule B15, binding was characterised by a dissociation constant (Kd) of 286 pM, the koff worked out at 0.000449 s⁻¹ and the kon came to 1.57e+06 M⁻¹ s⁻¹.

B16: the Kd was 3430 pM, the koff turned out to be 0.00404 s⁻¹ and the kon is 1.18e+06 M⁻¹ s⁻¹.

In turn, B17 showed a Kd of 246 pM, a koff of 0.000419 s⁻¹ and a kon of 1.7e+06 M⁻¹ s⁻¹.

As to B18, binding was characterised by a dissociation constant (Kd) of 498 pM, the koff came to 0.000711 s⁻¹ and the on-rate constant (kon) amounted to 1.43e+06 M⁻¹ s⁻¹.

B19 showed a Kd of 241 pM, a koff of 0.000459 s⁻¹ and a kon of 1.91e+06 M⁻¹ s⁻¹.

For B20, the affinity, expressed as Kd, was 249 pM; the koff was found to be 0.000413 s⁻¹; the kon turned out to be 1.66e+06 M⁻¹ s⁻¹.

On to B21, for which the Kd came out at 2590 pM, the koff came out at 0.00243 s⁻¹ and the kon is 942000 M⁻¹ s⁻¹.

The molecule B22 returned a Kd of 278 pM, a koff of 0.000499 s⁻¹ and a kon of 1.8e+06 M⁻¹ s⁻¹.

With B23, the Kd was determined as 288 pM, the koff is 0.000446 s⁻¹ and the kon came out at 1.55e+06 M⁻¹ s⁻¹.

For B24, the Kd came out at 273 pM, the koff came to 0.000526 s⁻¹ and the kon stood at 1.92e+06 M⁻¹ s⁻¹.
